B1: EPB41L3 (parent)
chain: SMQCKVILLDGSEYTCDVEKRSRG

Variants of: B1
Assay: protein stability index of a GFP-peptide fusion (GPS, HEK-293T) (PSI 1-6); higher = more stable
Conditions: c terminus: a fixed tail appended
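Further: lentivirally expressed fusions sorted by FACS into six bins by GFP to DsRed ratio, PSI derived from sequencing read proportions per bin multiplied by bin number.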

Variant	protein stability index
SMQCKVILLDGSTYTCDVEKRSRG [E13T]	2.33
SMQCKVILLDGSLYTCDVEKRSRG [E13L]	2.7
SMQCKVILLDGSKYTCDVEKRSRG [E13K]	2.41
SMQCKVILLDGSWYTCDVEKRSRG [E13W]	2.05
SMQCKVILLDGSPYTCDVEKRSRG [E13P]	3.48
SMQCKVILLDGSQYTCDVEKRSRG [E13Q]	2.98
SMQCKVILLDGSNYTCDVEKRSRG [E13N]	1.75
SMQCKVILLDGSVYTCDVEKRSRG [E13V]	1.86
SMQCKVILLDGSYYTCDVEKRSRG [E13Y]	1.9
SMQCKVILLDGSMYTCDVEKRSRG [E13M]	2.09
SMQCKVILLDGSIYTCDVEKRSRG [E13I]	1.51
SMQCKVILLDGSSYTCDVEKRSRG [E13S]	3.27
SMQCKVILLDGSEYTNDVEKRSRG [C16N]	2.84
SMQCKVILLDGSEYTEDVEKRSRG [C16E]	3.52
SMQCKVILLDGSEYTLDVEKRSRG [C16L]	2.23
SMQCKVILLDGSEYTSDVEKRSRG [C16S]	2.65
SMQCKVILLDGSEYTGDVEKRSRG [C16G]	3.19
SMQCKVILLDGSEYTDDVEKRSRG [C16D]	3.44
SMQCKVILLDGSEYTPDVEKRSRG [C16P]	2.66
SMQCKVILLDGSEYTKDVEKRSRG [C16K]	3.07
SMQCKVILLDGSEYTFDVEKRSRG [C16F]	2.66
SMQCKVILLDGSEYTVDVEKRSRG [C16V]	3.7
SMQCKVILLDGSEYTIDVEKRSRG [C16I]	2.77
SMQCKVILLDGSEYTWDVEKRSRG [C16W]	2.01

Variant	protein stability index
SMQCKVILLDGSEYTMDVEKRSRG [C16M]	2.41
SMQCKVILLDGSEYTTDVEKRSRG [C16T]	2.55
SMQCKVILLDGSEYTHDVEKRSRG [C16H]	3.53
SMQCKVILLDGSEYTADVEKRSRG [C16A]	2.95
SMQCKVILLDGSEYTCDVEKRPRG [S22P]	2.56
SMQCKVILLDGSEYTCDVEKRMRG [S22M]	2.4
SMQCKVILLDGSEYTCDVEKRIRG [S22I]	2.16
SMQCKVILLDGSEYTCDVEKRNRG [S22N]	3.47
SMQCKVILLDGSEYTCDVEKRVRG [S22V]	2.12
SMQCKVILLDGSEYTCDVEKRWRG [S22W]	2.11
SMQCKVILLDGSEYTCDVEKRFRG [S22F]	2.38
SMQCKVILLDGSEYTCDVEKRARG [S22A]	2.29
SMQCKVILLDGSEYTCDVEKRERG [S22E]	3.75
SMQCKVILLDGSEYTCDVEKRGRG [S22G]	3.02
SMQCKVILLDGSEYTCDVEKRDRG [S22D]	2.52
SMQCKVILLDGSEYTCDVEKRRRG [S22R]	3.11
SMQCKVILLDGSEYTCDVEKRYRG [S22Y]	2.38
SMQCKVILLDGSEYTCDVEKRCRG [S22C]	2.09
SMQCKVILLDGSEYTCDVEKRTRG [S22T]	3.63
SMQCKVILLDGSEYTCDVEKRHRG [S22H]	2.89
SMQCKVILLDGSEYTCDVEKRLRG [S22L]	2.08
SMQCKVILLDGSEYTCDVTKRSRG [E19T]	1.54
SMQCKVILLDGSEYTCDVIKRSRG [E19I]	1.93
SMQCKVILLDGSEYTCDVHKRSRG [E19H]	1.73

Variant	protein stability index
SMQCKVILLDGSEYTCDVNKRSRG [E19N]	2.29
SMQCKVILLDGSEYTCDVLKRSRG [E19L]	1.99
SMQCKVILLDGSEYTCDVDKRSRG [E19D]	2.19
SMQCKVILLDGSEYTCDVVKRSRG [E19V]	2.35
SMQCKVILLDGSEYTCDVPKRSRG [E19P]	2.11
SMQCKVILLDGSEYTCDVSKRSRG [E19S]	2.6
SMQCKVILLDGSEYTCDVAKRSRG [E19A]	2.17
SMQCKVILLDGSEYTCDVMKRSRG [E19M]	2.14
SMQCKVILLDGSEYTCDVWKRSRG [E19W]	2.11
SMQCKVILLDGSEYTCDVGKRSRG [E19G]	2.51
SMQCKVILLDGSEYTCDVCKRSRG [E19C]	2.13
SMQCKVILLDGSEYTCDVYKRSRG [E19Y]	2.14
SMQCKVILLDGSEYTCDVQKRSRG [E19Q]	2.5
SMQCKVILLDGSEYTCDVFKRSRG [E19F]	1.19
SMQCKVILLDGSEYTCDVRKRSRG [E19R]	2.15
SMQCKVILLDGSEYTCDVKKRSRG [E19K]	2.34
SMQCKVILLDGSEYTCDVEKDSRG [R21D]	3.49
SMQCKVILLDGSEYTCDVEKHSRG [R21H]	2.72
SMQCKVILLDGSEYTCDVEKNSRG [R21N]	1.92
SMQCKVILLDGSEYTCDVEKQSRG [R21Q]	2.55
SMQCKVILLDGSEYTCDVEKWSRG [R21W]	1.57
SMQCKVILLDGSEYTCDVEKKSRG [R21K]	3.56
SMQCKVILLDGSEYTCDVEKMSRG [R21M]	1.88
SMQCKVILLDGSEYTCDVEKPSRG [R21P]	3.06

Variant	protein stability index
SMQCKVILLDGSEYTCDVEKESRG [R21E]	3.09
SMQCKVILLDGSEYTCDVEKVSRG [R21V]	2.19
SMQCKVILLDGSEYTCDVEKLSRG [R21L]	2.31
SMQCKVILLDGSEYTCDVEKYSRG [R21Y]	2.09
SMQCKVILLDGSEYTCDVEKISRG [R21I]	1.88
SMQCKVILLDGSEYTCDVEKCSRG [R21C]	2.86
SMQCKVILLDGSEYTCDVEKTSRG [R21T]	2.84
SMQCKVILLDGSEYTCDVEKGSRG [R21G]	2.73
SMQCKVILLDGSEYTCDAEKRSRG [V18A]	3.5
SMQCKVILLDGSEYTCDKEKRSRG [V18K]	4.16
SMQCKVILLDGSEYTCDTEKRSRG [V18T]	3.38
SMQCKVILLDGSEYTCDLEKRSRG [V18L]	1.79
SMQCKVILLDGSEYTCDEEKRSRG [V18E]	3.18
SMQCKVILLDGSEYTCDNEKRSRG [V18N]	3.24
SMQCKVILLDGSEYTCDCEKRSRG [V18C]	2.29
SMQCKVILLDGSEYTCDPEKRSRG [V18P]	3.57
SMQCKVILLDGSEYTCDGEKRSRG [V18G]	2.96
SMQCKVILLDGSEYTCDQEKRSRG [V18Q]	3.83
SMQCKVILLDGSEYTCDMEKRSRG [V18M]	2.62
SMQCKVILLDGSEYTCDIEKRSRG [V18I]	2.82
SMQCKVILLDGSEYTCDFEKRSRG [V18F]	2.1
SMQCKVILLDGSEYTCDYEKRSRG [V18Y]	2.29
SMQCKVILLDGSEYTCDDEKRSRG [V18D]	3.36
SMQCKVILLDGSEYTCDHEKRSRG [V18H]	2.72

Variant	protein stability index
SMQCKVILLDGSEYTCDSEKRSRG [V18S]	3.69
SMQCKVILLDGSEYTCDREKRSRG [V18R]	2.92
SMQCKVILLDGSEPTCDVEKRSRG [Y14P]	3.66
SMQCKVILLDGSEETCDVEKRSRG [Y14E]	3.83
SMQCKVILLDGSETTCDVEKRSRG [Y14T]	2.81
SMQCKVILLDGSESTCDVEKRSRG [Y14S]	4.43
SMQCKVILLDGSEDTCDVEKRSRG [Y14D]	3.81
SMQCKVILLDGSEWTCDVEKRSRG [Y14W]	1.9
SMQCKVILLDGSENTCDVEKRSRG [Y14N]	3.7
SMQCKVILLDGSEATCDVEKRSRG [Y14A]	3.7
SMQCKVILLDGSECTCDVEKRSRG [Y14C]	2.67
SMQCKVILLDGSEVTCDVEKRSRG [Y14V]	3.15
SMQCKVILLDGSEGTCDVEKRSRG [Y14G]	3.69
SMQCKVILLDGSEITCDVEKRSRG [Y14I]	2.74
SMQCKVILLDGSEFTCDVEKRSRG [Y14F]	2.21
SMQCKVILLDGSERTCDVEKRSRG [Y14R]	3.66
SMQCKVILLDGSEKTCDVEKRSRG [Y14K]	3.97
SMQCKVILLDGSELTCDVEKRSRG [Y14L]	1.84
SMQCKVILLDGSEYTCDVEKRSSG [R23S]	3.17
SMQCKVILLDGSEYTCDVEKRSDG [R23D]	3.51
SMQCKVILLDGSEYTCDVEKRSNG [R23N]	2.52
SMQCKVILLDGSEYTCDVEKRSPG [R23P]	2.51
SMQCKVILLDGSEYTCDVEKRSHG [R23H]	3.31
SMQCKVILLDGSEYTCDVEKRSTG [R23T]	3.61

Variant	protein stability index
SMQCKVILLDGSEYTCDVEKRSMG [R23M]	2.72
SMQCKVILLDGSEYTCDVEKRSIG [R23I]	2.45
SMQCKVILLDGSEYTCDVEKRSAG [R23A]	3.05
SMQCKVILLDGSEYTCDVEKRSEG [R23E]	2.63
SMQCKVILLDGSEYTCDVEKRSFG [R23F]	2.07
SMQCKVILLDGSEYTCDVEKRSKG [R23K]	3.39
SMQCKVILLDGSEYTCDVEKRSQG [R23Q]	2.87
SMQCKVILLDGSEYTCDVEKRSYG [R23Y]	2.22
SMQCKVILLDGSEYTCDVEKRSCG [R23C]	3.04
SMQCKVILLDGSEYTCDVEKRSVG [R23V]	2.88
SMQCKVILLDGSEYTCDVEKRSLG [R23L]	2.8
SMQCKVILLDGSEYTCDVEMRSRG [K20M]	2.04
SMQCKVILLDGSEYTCDVEQRSRG [K20Q]	2.6
SMQCKVILLDGSEYTCDVEFRSRG [K20F]	1.43
SMQCKVILLDGSEYTCDVENRSRG [K20N]	3.04
SMQCKVILLDGSEYTCDVEWRSRG [K20W]	1.02
SMQCKVILLDGSEYTCDVECRSRG [K20C]	2.15
SMQCKVILLDGSEYTCDVESRSRG [K20S]	2.52
SMQCKVILLDGSEYTCDVEERSRG [K20E]	3.26
SMQCKVILLDGSEYTCDVETRSRG [K20T]	3.66
SMQCKVILLDGSEYTCDVELRSRG [K20L]	1.67
SMQCKVILLDGSEYTCDVEARSRG [K20A]	2.06
SMQCKVILLDGSEYTCDVEVRSRG [K20V]	2.11
SMQCKVILLDGSEYTCDVEHRSRG [K20H]	2.87

Variant	protein stability index
SMQCKVILLDGSEYTCDVEPRSRG [K20P]	2.49
SMQCKVILLDGSEYTCDVEDRSRG [K20D]	3.36
SMQCKVILLDGSEYTCDVEIRSRG [K20I]	1.21
SMQCKVILLDGSEYTCWVEKRSRG [D17W]	2.06
SMQCKVILLDGSEYTCCVEKRSRG [D17C]	2.45
SMQCKVILLDGSEYTCPVEKRSRG [D17P]	3.08
SMQCKVILLDGSEYTCNVEKRSRG [D17N]	2.36
SMQCKVILLDGSEYTCEVEKRSRG [D17E]	2.84
SMQCKVILLDGSEYTCSVEKRSRG [D17S]	2.21
SMQCKVILLDGSEYTCRVEKRSRG [D17R]	3.07
SMQCKVILLDGSEYTCGVEKRSRG [D17G]	2.34
SMQCKVILLDGSEYTCYVEKRSRG [D17Y]	1.61
SMQCKVILLDGSEYTCIVEKRSRG [D17I]	1.89
SMQCKVILLDGSEYTCTVEKRSRG [D17T]	2.59
SMQCKVILLDGSEYTCHVEKRSRG [D17H]	2.51
SMQCKVILLDGSEYTCLVEKRSRG [D17L]	3.38
SMQCKVILLDGSEYTCMVEKRSRG [D17M]	1.1
SMQCKVILLDGSEYDCDVEKRSRG [T15D]	3.38
SMQCKVILLDGSEYFCDVEKRSRG [T15F]	1.63
SMQCKVILLDGSEYICDVEKRSRG [T15I]	2.67
SMQCKVILLDGSEYECDVEKRSRG [T15E]	2.45
SMQCKVILLDGSEYSCDVEKRSRG [T15S]	3.03
SMQCKVILLDGSEYRCDVEKRSRG [T15R]	2.45
SMQCKVILLDGSEYQCDVEKRSRG [T15Q]	3.19

Variant	protein stability index
SMQCKVILLDGSEYMCDVEKRSRG [T15M]	2.49
SMQCKVILLDGSEYYCDVEKRSRG [T15Y]	2.58
SMQCKVILLDGSEYLCDVEKRSRG [T15L]	1.67
SMQCKVILLDGSEYHCDVEKRSRG [T15H]	1.98
SMQCKVILLDGSEYVCDVEKRSRG [T15V]	2.06
SMQCKVILLDGSEYPCDVEKRSRG [T15P]	3.37
SMQCKVILLDGSEYTCDVEKRSRC [G24C]	2.56
SMQCKVILLDGSEYTCDVEKRSRR [G24R]	2.84
SMQCKVILLDGSEYTCDVEKRSRQ [G24Q]	2.17
SMQCKVILLDGSEYTCDVEKRSRM [G24M]	2.51
SMQCKVILLDGSEYTCDVEKRSRI [G24I]	1.98
SMQCKVILLDGSEYTCDVEKRSRH [G24H]	2.47
SMQCKVILLDGSEYTCDVEKRSRD [G24D]	2.37
SMQCKVILLDGSEYTCDVEKRSRK [G24K]	2.99
SMQCKVILLDGSEYTCDVEKRSRE [G24E]	3
SMQCKVILLDGSEYTCDVEKRSRN [G24N]	3.27
SMQCKVILLDGSEYTCDVEKRSRF [G24F]	2.47
SMQCKVILLDGSEYTCDVEKRSRA [G24A]	3.43
SMQCKVILLDGSEYTCDVEKRSRP [G24P]	2.47
SMQCKVILLDGSEYTCDVEKRSRL [G24L]	2.47
